In the NTF2 design screens of Basanta et al. (2020) one finds protease stability score data, which are given here for 47 sequences.

A short description of the data set: protease stability score; higher = more stable; yeast display proteolysis, trypsin and chymotrypsin.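 Also: relative to predicted unfolded state with 0 unfolded-like and 1 meaning tenfold more protease.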
Consider “TDEEEMLRNFWHELIHALHTGDEELFEELADPDTRWYFENRVVIGRETVRNMIDELRIKEVRVERMRIQGDKFHAKLTQRGQINGREVNTETNLHVDIYNGRLKSVELRVK”, for which the protease stability score turned out to be 0.888.

“DEDTEKHKELLEMLVVAYLTGDFRHWWDLADPHVKLDQGDKHLHGREDMVEWIRRFIKKFKNVQVKIRHIHHQGNKDNIDGILDVDGREYHVEIIIVLVDGVIRSEEIRVK” returned a protease stability score of 1.87.

In turn, “DEEEESYRIAEHLFREVMETGDERISEHLADPRTRFQVGDKTFHGMDEWREVLHRMLVEIRMHDVKVHDVKSIGDKLIIDGYLYIEINGRRTSIYTELYWLKVNGQWRLHYITMH” returned a protease stability score of 1.12.

“TEEQEIIQKFLDEMMEYLETGDEHSLRRLADPHARWDVNGREYHGRELFITFFSELTHKLGWTIQKIEIESKRRVGEYVSFRMTIHSEVDGRHKVIIYNFFVFKVNGKWFLKSFKEE” showed a protease stability score of 1.47.

Take “REEEEEAKRFLDIITRSILTGDEDSLSELFDPNTQLHYGDKRFVGRERINEVVKQWRIEDVNLHDVEVQGEWAILDTRVDGNFNGKKRNLETRIITEKVNGRWILKRVEIE”: the protease stability score was 1.35.

As for “EEDEEITKLYLEIILHIWLTGNEEELLRMFDPNARVDINGVINIGREDLLKRFHEHWRKYGAKHIRVRDIKFHIFNGVIYINLHLELIVGDKTFHVHLHMRSRKVDGRWHTHEFEERIN”, the protease stability score was 1.69.

In turn, “DEEHEHLHKWLDMLLYAHKTGDPEVILKNADPHVRSEVDGREVHGMEKFARDLYEMRIHRIHIKDVKTIGNKLDVDGRLDGEFNGKRVDSDVHLHLVVIDGRLHSLHIKHR” gave a protease stability score of 0.558.

With “SEEEDHAKEMFRILIENLITGDEDTLRKLIDPDVRFIYGDKLHVGWKDFREWQHRMDRRVKNMKIHVRDMRVYNGVSHAETEEHYNGKTVETEVHFKVIDGQLKHLEIRIH”, the protease stability score came out at 0.188.

As to “DEEQEIMEHILEELLRIDWTGDEHVLERLLDPNMQLEFNGVRLVGMEEVQRWLRRFLTEIRIHDFKVHDFHSFNGRLHSDVEVDFQVNGQRHITRVRLNLEVINGVVHRVEVRHE”, the protease stability score was 2.17.

The sequence “EEDHEIVEKMLKMLFHSWHTGDEKLFKTLVDPNAKFVIGDKTFHGREFYKFLHDRFDHFRMHDITVRKVEHFDGRLIAHVEIHWRLHIGDKTETEVTESHIIIEKIDGKWRNRSIIVH” displayed a protease stability score of 1.76.

The sequence “NEWKEKFERFTRLLLTALMTGNEELLTKMVDPHVKVDIIINGQHIEHHGMERVIEMLTQLRVDRWRIKHIDIQGDKLHVNIHLDIKYDGRREETRTEIRLIIYDGVVHEIEIHLH” registered a protease stability score of 1.99.

Regarding “DEETEDLRRWFEALLRSTHTGDFHTLNRLIDPNVRMDVGDKRHHGREFFEHLLRRADHIKIELEDYEFQGNKVIFHGKLIIHYNGQDLEYKSSMDAEKVDGRWIVRRVYLE”, the protease stability score was 1.58.

Turning to “DEMERIIETALELLIKSERTGDEDLYREFLDPHTIIDINGKIIHGREEFVRWFTEIRVHELKLRDMEIQGEFAIIYGEVDGRIGDKHFHTSVRLIVYKIDGRWIMRWNELN”, the protease stability score was determined as 1.42.

In the case of “DDELKTTHKFAKEFVDQLTTGDWEWHDKLFDPDARMSMIIDGREVRLHGREELTRWHLKVFEDLGIERVHSRYEHMHVVDGQIHFRGVLEFNGQRREFHIDMRIVDGRMHEFHEIHN”, the protease stability score stood at 0.329.

On to “SEEERHSREMMKLYYKFLETGDEEKFLSLADPDVRIVFNGRDYHGWKDMEKLFHRLLKELGVDHFHIEHVRIDIIDGVAFAFFEVSYNIDGKSLHMHYRFYVKKIDGKWHVRWIHLEVK”, for which the protease stability score came out at 1.59.

Sequence “SEEERVAKHVSHNLFESLKTGNEEEIEKFFDPNVKVQVGEFEHHGREAVLFWFHEFGIKHIHFHEERVQGDKMHSHLNLIVNGRHISHHIHFHKINGRWHITHQRFH” came in with a protease stability score of 0.828.

Take “DEIEKELTDVFWEWLHLHITGDEDRLRDLMDPDVRLIYGDKTAVGREEFEKMWRELRHRFDHIRNVQIHDKRIVGNKLEMDFNFDHEVNGRREHTRVKIVLITINGKLHAFRIEVE”: the protease stability score was determined as 1.4.

“DEDEREVAEVLRRWLHDFLTGDEKEFHRLVDPHVKYREHYNGQQIHVHGRENLFEFIRRRNEEMRMEILIRDWKVQGDYAESEGEVIFDINGRIHSVDLRVEIIVVNGRVSKVHISVN” gave a protease stability score of 0.847.

“DEDTENVLRALEQFDEKLLTGDWRSLEELADPHVRIDINGQDIHGRETHSEHFRRIKNLKLEHLDVHSFTVIGNKVELDTEIIGEIDGRRRIFRVRMRILKIDGRWVLHSVEIG” showed a protease stability score of 1.46.

In turn, “DESEELAERLLEEMEELILTGDWEKFVRMVDPHARFVIGEFDNHGRETFVKELLELRVHIRDSRIREIDVQGEKIRMHTQIDFEIDVDGVRHRREHSFHFIVLKIDGRWSVQQLRIK” had a protease stability score of 0.64.

“REEDERDHRISELLFDLWVTGDWEIFHHLADPNVKANINGQETHGREKIMRIMMRMIHEFGFKHIQLEDSTVINGRVHQQIKVRVGDKSEEFNIHHHVVDGKIKHIHIEVR” registered a protease stability score of 1.36.

In turn, “SEELEHAERLDRMIAKAYSTGDEDVFRELLDPHVKIHDEDHHSHGMEWIRYHIERFKNVRSSVEVRRYHVQGNKIFSDGVFRLQVGDKDITRRVLFVVLKVDGRWIMESIHIE” had a protease stability score of 1.08.

As to “DEEKEIVENTTRLYWHLMETGNFDRWMKEADPNTRQDVDGKELHGMELVAHRIRELLEKFKGVRFHVEDIKIINGRSHMDIRIIIGDKHIEAHLILLVVDGRLKHVSLIIR”, the protease stability score turned out to be 1.99.

On to “TEREEEVHHVQRLEWEALRTGNEEYLLRLIDPEVRIRQGDKTLIGREALNLHLKKVKNLQFRDIKLRDFDVQGEKIHLHTELIGEVDGRELKIDIDIHVKKINGRWVIDSFHIN”, for which the protease stability score turned out to be 1.32.

Regarding “DDHEKIVQHLLEEIIEIWLTGNFEEHLKRFDPDMRLNVNGVEHHGRESNERWFNKQIERYKNATIHHRIESVDVQGDKVHSDGELIYIQGDKIIRTKIIVRLLVVNGRIKRIEIEMI”, the protease stability score turned out to be 1.31.

“DEDEEIARKIMEMLIEELRTGDEEKSTENADPNVRVHFNGKDLHGWEEFSRLASKFKGLRFILRRMDVFNGRVVIDGEERWDGRTHRVILHIEKVNGRWRIKQVDIH” had a protease stability score of 1.63.

In turn, “DHEKKEIEDLLRELFEALFTGDEHILHRLLDPRTKLVINGRNYHGRETVRRFVLHIRIFFHHIEIESSEIQGEWIHLHIRVDFREEQGDKERRIDTHAVMHMLKVNGRWVIHEIVLH” showed a protease stability score of 1.54.

Turning to “DEEKEEHEKMIERWLRALETGDEHLLRELIDPNVRLDINGRRTHGREDVLRLFVDLGIDHHDIHDVKIIDGRIDMDTRINVNGREIKIRVIARKFDGRWIVESFRVE”, the protease stability score stood at 1.89.

The sequence “SEEHKEAREFLEEWITFIHTGDEDMIHKMLDPDTRSNINGRDLHGRELAVKIIIEEVRRYRGVQIRMEREHVVDGRMESTIRVHQGEKEFEVIVHFVKINGRWRLKWIEIR” came in with a protease stability score of 1.3.

“DEEDRRAKEIMRLLLEDFHTGNEDSLRELMDPTTRNDLVVNGQEHVIHGRETFAEWESKWIKHLRMNLRLRHVNAFNGQVRLETELNLEVNGRIIILDTEVIVHVYNGRIHSFTHRIK” gave a protease stability score of 0.236.

Consider “DEEEEELRELARISLELWITGDEDHLRHLMDPRTLLIVDGQEVHGREEAIKWVAFHLLKIKGLTLELKDFDVINGRLHLHVTRRVNGVRRRLRIHIEIIDGRIKTIRITID”, for which the protease stability score worked out at 2.28.

On to “DEERHEALRVAKEFMHNFWTGNEELNRHLIDPNVRLTIEVGDKRIDRVGRESFSHTLHRWREHLRIEDLDETRIDVQGDKAVLHTIMHIKIGDKHITVEVDINILVVDGRLRHIRVIVR”, for which the protease stability score was found to be 2.01.

Regarding “SEDERDAKRAEEEFKRHVETGDEKMLREMMDPHVRFEIGDKEFIGWNFAEKLHLDLIERIDHEELILRHINVVNGKVDSDVELRVHVDGVTIIVRTRIISKKIDGRWLIRSIIIH”, the protease stability score was 0.695.

The sequence “SEEEKEAHDWMEVWLELFHTGDEDMLEHMADPHTRIHVDGRKFHGRENYVRLVRHMRVHHFIERRVRIINGRIHIEGEARVNINGQEIDNHVQIHLNLVDGRLKTEHIKVK” returned a protease stability score of 0.927.

Take “DEQKNWAKIMLELLEHAWRTGDEHTLQELADPNTRLNIGDKDIIGWDLILTVLIEIRMSFSYRLEEVHTFENHVVLRTRLIRVLHFDGKSTEFVKETELYIEKVDGRWILRHIVIK”: the protease stability score is 1.29.

For the sequence “DHLDERAERFFLKLVENLLTGNEEIWEELIDPNMRFHAENHSDHGWEVIRRWMERLIERFDHIEIRVHRLRFQGDKVHSDVRVHYEQGDKREEINMHIIIIIINGRIHTIRLIIL”, the protease stability score was determined as 0.308.

As for “SKEEEDTERITRLILEYLLTGDEDVFNHLADPNVRLVIDGRLVHGRERASRIMVESYEKFGADHREVRMHSVRDVDGRIHSDIKVHVHIGDKRQNLSHEVYSTKYDGRWIIKSVILT”, the protease stability score stood at 0.245.

In turn, “SEEKQDVDEFIKRVIETLETGDWRNRHDLLDPNVRIDIDGVELIGRHIALELDWYFLRHARVRMYIRHVNVQGEYMDVDGRLHIHQGDKNIHIETRLIVHKINGRWLIKSIELR” gave a protease stability score of 2.87.

In turn, “SEDEREAIRFLELWVRESRTGDEDSTDRLADPHTRVEFENHHSVGREHAVTFLIHLRTHHFEIHEVQVFNGRIEMRLHVDGIFNGRRYRSDVLLVVLKIDGQWLLHSIRFH” displayed a protease stability score of 1.52.

In the case of “DELDRLMRHISKLWVELLLTGNEEITSHLADPDARLHINGRDTIGREEYIRMYHEWLNEIRIRDFHIHSIKTQGNKANTDSELDLEVNGKRLDLRITIIILNINGRMKSVKVEVI”, the protease stability score turned out to be 0.99.

“DSLEEMTRKWFEKWVRDLKTGDEQSMTELADPHVRFLQGDKEYHGRELFTELESEKRKRFDHLELRLHSMEVQGDKLHIDSRMILKIGDFVLKLNVYLHVLKIDGRWLLEEIRIK”: the protease stability score came to 0.704.

“DEDEEFWKELLRLFNEALITGDEDLLSHYADPNTRIRDENHKIHGRERYSRLMVKLGIDHVHLHSFTIIDGVAHIHLEWHQGDKTLDVRSYSRKFNGRWFLTHVRIK”: the protease stability score came out at 1.05.

The sequence “TELEKDVVEVLHFLTHAHKTGDEDAINRLLDPHTRIDIDGQEFIGREDALRLWHELRTTHMRIDDRRIQGDKIQVDGQVNYLVNGREEERDVTIHMVKFDGVWVLREIKID” had a protease stability score of 2.07.

Sequence “DEDHKSAEDMLRLLLETVITGDETLLEKLADPHVRLRVGDKKFIGMEELLRLLDEEKKRLGYTRVDLVLHHREVQGDKLHLETELRVNGRTYQTHWIALKINGRWIIHEVSIR” displayed a protease stability score of 2.25.

The sequence “DDMERHARKALRVLIESLMTGDEDDIYRMLDPHVRYIFDGVDFHGRERTKETLERLSREFGLSRVHTELKDSKVYDGRLELHLEVNVDGRRRTVIVHVVKIDGKWYVEELRVQ” yielded a protease stability score of 1.26.

“TEEEDEASRLMEEFLKHHETGDWEELKKMADPDARYHETVNGKRIERHGRDDLITWLRKFLEKFKNMRLHIDEMRLIGNKNILHGTLRIGDKDIESRIILIIIDGRIKEIEIIIK” registered a protease stability score of 1.

For “REEEREAKEWLERLIRDIITGDEDKMTNLIDPNVRILINGKHIHGWELYFKIWIDHVERFPNMRVDYHVKSITFFNGRIIMYYEERIHINGKEIRVDVHIQALKVNGRWILESVHNE”, the protease stability score was 1.54.
